Assay in all cases: fluorescence polarisation; 37 °C, after the 25 °C reading ramped over 7 min to 37 °C and 2 min incubation; unlabeled Rb^P against 1.5 nM TMR-E2F1^TD or 7.5 nM TMR-E7^LxCxE; 25 mM Tris pH 8.0, 200 mM NaCl, 1 mM DTT, 0.1% Tween-20; apparent Kd
What all share (conditions): both partners purified
Background: Polarisation of emitted light reports the rotation of a fluorescent probe.

For one assay, the target named is T1, Rb^P S474R (human, UniProt P06400 380-788, S474R).
T1 construct: also called variant 13
T1 sequence (looked up): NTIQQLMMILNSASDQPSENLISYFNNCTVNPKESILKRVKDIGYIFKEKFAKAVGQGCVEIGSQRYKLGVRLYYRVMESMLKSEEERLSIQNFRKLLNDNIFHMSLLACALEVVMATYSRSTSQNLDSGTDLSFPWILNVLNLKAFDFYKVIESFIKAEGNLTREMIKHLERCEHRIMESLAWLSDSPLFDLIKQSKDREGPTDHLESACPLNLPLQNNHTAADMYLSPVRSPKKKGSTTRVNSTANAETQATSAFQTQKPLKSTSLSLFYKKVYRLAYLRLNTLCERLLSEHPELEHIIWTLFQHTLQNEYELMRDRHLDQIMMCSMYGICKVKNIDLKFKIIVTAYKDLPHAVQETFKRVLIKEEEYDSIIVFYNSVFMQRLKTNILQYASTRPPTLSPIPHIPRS

A further assay addresses T2, Rb^P A488V (human, UniProt P06400 380-788, A488V).
T2 construct: also called variant 14
T2 sequence (looked up): T1 sequence (looked up) with R95S, A109V

The next assay concerns the target T3, Rb^P H585Y (human, UniProt P06400 380-788, H585Y).
T3 construct: also called variant 33
T3 sequence (looked up): T1 sequence (looked up) with R95S, H206Y

For the next assay, the target named is T4, Rb^P M695I (human, UniProt P06400 380-788, M695I).
T4 construct: also called variant 61
T4 sequence (looked up): T1 sequence (looked up) with R95S, M316I

The next assay concerns the target T5, Rb^P S751C (human, UniProt P06400 380-788, S751C).
T5 construct: also called variant 71
T5 sequence (looked up): T1 sequence (looked up) with R95S, S372C

Residue numbers refer to the chain shown, from its start. In names and notes the source's numbering stands. No end group written: not given here. TMR = tetramethyl rhodamine dye

B1: TMR-E2F1^TD, peptide of the E2F1 transactivation domain (peptide)
peptide: {TMR}-GEGIRDLFDCDFGDLTPLD
notes: also called E2F^TD; source: synthetic peptide, bought: GenScript
Consider B1, for which the Kd is 580 nM in the assay with Rb^P S474R; 78 nM with Rb^P A488V; 92 nM in the assay with Rb^P H585Y; 165 nM with Rb^P M695I; 137 nM with Rb^P S751C.

B2: TMR-E7^LxCxE, LxCxE peptide of the E7 oncoprotein from HPV (peptide)
peptide: DLYCYEQLN
modifications: also: TMR label, position not given here
notes: source: synthetic peptide, bought: GenScript
Take B2: the Kd with Rb^P S474R came out at 15 nM; in the assay with Rb^P A488V it was 19 nM; in the assay with Rb^P H585Y it was 18 nM; with Rb^P M695I it was 93 nM; with Rb^P S751C, 98 nM.

(Values after paper PMC11931385, “Structural and functional analysis of cancer-associated missense variants in the retinoblastoma protein pocket domain” (The Journal of Biological Chemistry, 2025).)
